In patent US20240408138A1 (UNIVERSITY OF CHICAGO, published 2024):
Where a chain is given by its changes, count along the chain named. Blank lines part the entries; values can stand above or below the binder they belong to.

How the values were obtained:
[1] = molecular target: T1, INCENP N-terminal domain (1-58), His- and Avi-tagged, biotinylated (UniProt Q9NQS7 1-58, biotinylated (Avi-tag, co-expressed E. coli biotin ligase BirA)); assay: single-point protein ELISA, 200 nM Fab on 50 nM immobilised biotinylated target, protein L-HRP, A450
T1 construct: range 1-58; Expressed in E. coli BL21(DE3); also called INC-N; INCENP N-terminal domain (AA 1-58); not shown: His-tag and Avi-tag
T1 sequence (looked up): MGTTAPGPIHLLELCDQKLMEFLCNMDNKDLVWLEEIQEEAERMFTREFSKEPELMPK
Method: To rapidly reconfirm the binding and specificity of the obtained Fabs after reformatting into the expression vectors single-point Fab ELISA was performed (FIG. 2). Briefly, 50 nM Avi-tagged targets were immobilized on the prepared NAV-coated and blocked with 0.5% BSA in PBS 96-well ELISA plates. The target coated plates were washed with appropriate buffer (TBST or PBST) and were incubated with 200 nM Fab for 20 minutes and then washed. The washed plates were incubated with protein L conjugated with HRP (1:5000 diluted in TBST) for 30 minutes. Plates were washed and the reaction was developed using the TMB chromogenic substrate (Thermofisher) and subsequently quenched with 1M HCl. Absorbance was read at 450 nm on Epoch plate reader.

[2] = molecular target: T2, INCENP displayed on the surface of cancer cells (UniProt Q9NQS7 1-918, limits assumed); assay: flow cytometry, 200 nM Fab on MCF7 breast cancer cells, anti-human F(ab')2-A647 secondary, MFI
T2 construct: whole, on cells; The sentence says 'various cancer cell lines'; also called cell surface INCENP
Method: (§1) Human or murine tumor cells were trypsinized, washed and resuspended in Flow buffer (1×PBS supplemented with 2% FBS) and added to a 96-well plate (#3799, Costar). 200 nM primary CPC Fab was mixed with 0.5M cells and incubated at 37 C for 20 min. Cells were washed with Flow buffer and stained with anti-human-FAB′2-A647 secondary antibody (#109-605-006, Jackson, 1:200) for 20 min at room temperature and washed again. Samples were analyzed by flow cytometry using CytoFLEX (Beckman Coulter) and mean fluorescence intensity (MFI) data was extracted using the FlowJo software (FIG. 4A-E, FIG. 5). Human peripheral blood mononuclear cells (PBMCs) derived from a single patient were used as a source of healthy human cells. PBMCs were counted, split and spun down 400×g 5 min. Cells were resuspended in Flow buffer (1×PBS supplemented with 2% FBS) and pre-incubated with TruStain FcX (1:20, Biolegend 422302) for 10 min at 37 C, followed by 200 nM primary Fab incubation at 37 for 20 min. Cells were washed twice and stained with secondary antibody (Alexa Fluor 647 AffiniPure Goat Anti-Human IgG, F(ab′)2 fragment specific, #109-605-006, Jackson, 1:200), for 20 min at RT, washed twice and analyzed by using CytoFLEX (Beckman Coulter). Mean fluorescence intensity (MFI) data was extracted using the FlowJo software (FIG. 4F).

[3] = molecular target: T1, INCENP N-terminal domain (1-58), His- …; assay: SPR, target immobilised on NTA chip via His-tag, two-fold Fab dilutions from 100 nM, 1:1 Langmuir fit
Method: The targets were immobilized onto a nitrilotriacetic acid (NTA) sensor chip via His-tag. 2-fold serial dilutions of the Fab were injected following ligand immobilization on the sensor chip. For each kinetic assay at least five dilutions of the Fab were tested. The data were fitted using 1:1 Langmuir Model to obtain the on-rate, off-rate and the affinity (KD) of the Fab-target interaction. (FIG. 3).

[4] = molecular target: T3, INCENP on the surface of murine tumor cells (Mus musculus, UniProt Q9WU62); assay: flow cytometry, 200 nM Fab on CT26 murine colorectal carcinoma cells, anti-human F(ab')2-A647 secondary, MFI [CT26]
T3 construct: kept apart from m4 because the cells are murine; also called cell surface INCENP on CT26, MC38 and 4T1 cells
T3 sequence (single chain, looked up): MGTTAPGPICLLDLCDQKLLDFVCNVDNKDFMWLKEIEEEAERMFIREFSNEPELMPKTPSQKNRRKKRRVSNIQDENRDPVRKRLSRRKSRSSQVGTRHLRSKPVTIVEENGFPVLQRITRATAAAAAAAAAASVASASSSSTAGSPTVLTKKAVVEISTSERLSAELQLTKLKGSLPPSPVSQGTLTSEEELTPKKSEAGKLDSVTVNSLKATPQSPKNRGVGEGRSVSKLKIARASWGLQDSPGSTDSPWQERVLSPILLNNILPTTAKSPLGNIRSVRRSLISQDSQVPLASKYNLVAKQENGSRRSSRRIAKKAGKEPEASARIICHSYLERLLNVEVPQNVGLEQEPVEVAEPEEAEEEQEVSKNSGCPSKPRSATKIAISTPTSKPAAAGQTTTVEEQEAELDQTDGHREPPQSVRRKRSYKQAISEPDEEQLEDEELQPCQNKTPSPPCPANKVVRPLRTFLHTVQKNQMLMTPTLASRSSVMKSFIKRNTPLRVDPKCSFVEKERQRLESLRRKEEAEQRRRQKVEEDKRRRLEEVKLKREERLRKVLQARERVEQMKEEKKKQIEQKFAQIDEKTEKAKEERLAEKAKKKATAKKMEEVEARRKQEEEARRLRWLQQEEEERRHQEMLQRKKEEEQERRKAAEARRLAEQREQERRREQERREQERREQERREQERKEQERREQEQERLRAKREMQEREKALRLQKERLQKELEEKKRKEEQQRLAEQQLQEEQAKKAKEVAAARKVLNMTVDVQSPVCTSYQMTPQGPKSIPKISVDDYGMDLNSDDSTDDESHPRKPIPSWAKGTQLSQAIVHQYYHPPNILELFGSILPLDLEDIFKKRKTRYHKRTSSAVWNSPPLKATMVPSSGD
Method: as §1

[5] = molecular target: T2, INCENP displayed on the surface of …; assay: flow cytometry, 200 nM Fab on MDA-231 breast cancer cells, anti-human F(ab')2-A647 secondary, MFI
Method: as §1

[6] = molecular target: T1, INCENP N-terminal domain (1-58), His- …; assay: western blot, recombinant INC-N on SDS-PAGE / PVDF, INC-N-16 Fab as primary, anti-human F(ab')2 IgG-HRP secondary
Method: (§2) Membranes were stained with Ponceau S dye to verify correct transfer of the proteins, were briefly washed with ddH2O and blocked with 4% skimmed milk in TBS-T containing 0.05% Tween20 for 30 min. at RT on the shaker. […] Membranes were washed 3 times with TBS-T and incubated with secondary anti-human FAB′2 specific HRP-conjugated IgG (diluted 1:10,000 in blocking buffer) for 45 minutes at RT, shaking. Membranes were washed again 3× with TBS-T, developed with ECL chemiluminescent substrate and visualized with the Biorad imaging instrument (FIG. 11).

INCENP FL = molecular target: T4, INCENP FL (Homo sapiens, UniProt Q9NQS7); assay: western blot, HeLa cell lysate on SDS-PAGE / PVDF, INC-N-16 Fab as primary, anti-human F(ab')2 IgG-HRP secondary
T4 construct: full length, denatured on SDS-PAGE and blotted; also called full-length INCENP in HeLa cell lysate
Method: as §2

- binding result [1]: binds
B1: INC-N-01 (Fab, V domains shown)
VH: EVQLVESGGGLVQPGGSLRLSCAASGFNVYYYSIHWVRQAPGKGLEWVASIYPSSGSTYYADSVKGRFTISADTSKNTAYLQMNSLRAEDTAVYYCARQWLYMLWPMWGLDYWGQGTLVTVSS
VL: DIQMTQSPSSLSASVGDRVTITCRASQSVSSAVAWYQQKPGKAPKLLIYSASSLYSGVPSRFSGSRSGTDFTLTISSLQPEDFATYYCQQSYYWPITFGQGTKVEIKR
notes: also called INC-N-01 Fab

- Kd [3]: 4.2 nM
- koff [3]: 0.0031 s⁻¹
- kon [3]: 740000 M⁻¹ s⁻¹
B6: INC-N-11 (Fab, V domains shown)
VH: EVQLVESGGGLVQPGGSLRLSCAASGFNVSYYSIHWVRQAPGKGLEWVASIYPSSGSTYYADSVKGRFTISADTSKNTAYLQMNSLRAEDTAVYYCARMYPSWMLYPYYMFAGMDYWGQGTLVTVSS
VL: B1 VL with S91R, Y92W, Y93V, W94Y
notes: also called INC-N-11 Fab

- Kd [3]: 1.2 nM
- koff [3]: 0.0005 s⁻¹
- kon [3]: 420000 M⁻¹ s⁻¹
B7: INC-N-38 (Fab, V domains shown)
VH: EVQLVESGGGLVQPGGSLRLSCAASGFNVYSSSIHWVRQAPGKGLEWVAYISSYSGYTYYADSVKGRFTISADTSKNTAYLQMNSLRAEDTAVYYCARTIYSSSYFYTWFIYGAAFDYWGQGTLVTVSS
VL: B1 VL with Y92W, Y93M, W94Y
notes: also called INC-N-38 Fab

- binding result [1]: binds
B10: INC-N-19 (Fab, V domains shown)
VH: EVQLVESGGGLVQPGGSLRLSCAASGFNVYYSYIHWVRQAPGKGLEWVASIYPYSGYTSYADSVKGRFTISADTSKNTAYLQMNSLRAEDTAVYYCARWRWPGLQFGYGMDYWGQGTLVTVSS
VL: B1 VL with Y93W, I96L
notes: also called INC-N-19 Fab

- binding result [6]: binds
- binding result (INCENP FL): binds
B11: INC-N-16 Fab (Fab, V domains shown)
VH: EVQLVESGGGLVQPGGSLRLSCAASGFNFYSSSIHWVRQAPGKGLEWVASIYPYSGYTSYADSVKGRFTISADTSKNTAYLQMNSLRAEDTAVYYCARAWIYAMDYWGQGTLVTVSS
VL: B1 VL with S91W, Y92D, Y93Q, P95L

- Kd [3]: 14.8 nM
- koff [3]: 0.011 s⁻¹
- kon [3]: 760000 M⁻¹ s⁻¹
B12: INC-N-04 (Fab, V domains shown)
VH: EVQLVESGGGLVQPGGSLRLSCAASGFNFYSYSIHWVRQAPGKGLEWVASIYSYSGYTYYADSVKGRFTISADTSKNTAYLQMNSLRAEDTAVYYCARYPLYFQYRKYYGIDYWGQGTLVTVSS
VL: B1 VL with S91G, Y92W, W94Y
notes: also called INC-N-04 Fab

- binding result [1]: binds
B13: INC-N-08 (Fab, V domains shown)
VH: EVQLVESGGGLVQPGGSLRLSCAASGFNFSSSSIHWVRQAPGKGLEWVASIYSYYGSTSYADSVKGRFTISADTSKNTAYLQMNSLRAEDTAVYYCARWMYKGYIFYQYFGLDYWGQGTLVTVSS
VL: B1 VL with Y92F, Y93S, W94N, P95L
notes: also called INC-N-08 Fab

The next lines start with the binder.

B2: INC-N-12 (Fab, V domains shown)
VH: EVQLVESGGGLVQPGGSLRLSCAASGFNFSSSSIHWVRQAPGKGLEWVASIYSYSGSTYYADSVKGRFTISADTSKNTAYLQMNSLRAEDTAVYYCARYHWYYYWYWGGVSPAMDYWGQGTLVTVSS
VL: B1 VL with S91M, Y92R, W94Y
notes: also called INC-N-12 Fab
- binding result [1]: binds

B3: INC-N-34 (Fab, V domains shown)
VH: EVQLVESGGGLVQPGGSLRLSCAASGFNVSSSSIHWVRQAPGKGLEWVASIYPSSGYTSYADSVKGRFTISADTSKNTAYLQMNSLRAEDTAVYYCARKLAYYWGAQWSYSGYKGMDYWGQGTLVTVSS
VL: B1 VL with Y93W, W94Y
notes: also called INC-N-34 Fab
- binding result [2]: binds
- binding result [1]: binds

B4: INC-N-13 (Fab, V domains shown)
VH: EVQLVESGGGLVQPGGSLRLSCAASGFNVSYYSIHWVRQAPGKGLEWVASIYPYSGSTYYADSVKGRFTISADTSKNTAYLQMNSLRAEDTAVYYCARYPYYVYWYYWWYYALDYWGQGTLVTVSS
VL: B1 VL with Y92W, Y93S, W94Y
notes: also called INC-N-13 Fab
- Kd [3]: 20 nM
- koff [3]: 0.0029 s⁻¹
- kon [3]: 140000 M⁻¹ s⁻¹

B5: INC-N-06 (Fab, V domains shown)
VH: EVQLVESGGGLVQPGGSLRLSCAASGFNISYSSIHWVRQAPGKGLEWVASIYPYSGSTYYADSVKGRFTISADTSKNTAYLQMNSLRAEDTAVYYCARWSLYGKWYYWWYGLDYWGQGTLVTVSS
VL: B1 VL with S91G, Y92S, W94Y
notes: also called INC-N-06 Fab
- binding result [4]: binds
- Kd [3]: 6.3 nM
- koff [3]: 0.0049 s⁻¹
- kon [3]: 770000 M⁻¹ s⁻¹

B8: INC-N-35 (Fab, V domains shown)
VH: EVQLVESGGGLVQPGGSLRLSCAASGFNFYSYSIHWVRQAPGKGLEWVASISSSSGSTSYADSVKGRFTISADTSKNTAYLQMNSLRAEDTAVYYCARHFHNPYSWDYWYGWYTALDYWGQGTLVTVSS
VL: B1 VL with Y92S, Y93S, W94S, P95L
notes: also called INC-N-35 Fab
- binding result [5]: binds
- binding result [1]: binds

B9: INC-N-14 (Fab, V domains shown)
VH: EVQLVESGGGLVQPGGSLRLSCAASGFNVSSYSIHWVRQAPGKGLEWVASIYPSSGSTYYADSVKGRFTISADTSKNTAYLQMNSLRAEDTAVYYCARKGYGWFYYYIEWYSPYAFDYWGQGTLVTVSS
VL: B1 VL with W94Y, I96V
notes: light chain shared with INC-N-18; also called INC-N-14 Fab
- binding result [1]: binds
